{"source": "the nanobody polyreactivity screen of Harvey et al. (2022)"}
{"assay": "yeast display, Sf9 membrane polyspecificity reagent, FACS + sequencing; frameworks hold sequencing errors", "method_in_brief": "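Galactose-induced (36–48 hours) yeast carrying a synthetic nanobody display library were exposed to 10% biotinylated, detergent-solubilized Sf9 membrane reagent at 4 °C for 1 hour. FACS followed streptavidin microbead enrichment, using low and high (top ~1%) gates for expression (anti-HA) and reagent binding (streptavidin). Colony PCR, MiSeq 2 × 250 sequencing and CDR-length filtering followed. Labels for polyreactivity reflect the gate of origin.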"}
{"sequence": "QVQLVESGGGLVQAGGRLSLSCAASGITFLGYAMGWYREAPGKDSELVAAISSGGSTYYADSVKGRFTISRDNAKNTVYLQMNILKPEDTAVYYCAKAVYYRDPYGGDYWGQGTQVTVSS", "polyreactivity (PSR sort gate)": "low polyreactivity"}
{"sequence": "QVQLVESGGGLVQAGGRLSLSSAASGITFRNYAMGWYRQAPGKERQLVAAISRRGGSTYYADSVKGRFTISRDNAKNTVYLQMNSLKPEDTAVYYCAKSPDTAKEYDYWGQGTQVTVSS", "polyreactivity (PSR sort gate)": "high polyreactivity"}
{"sequence": "QVQLVESGGGLVQAGGSFRLSCAASGGTFDTYVMGWYRQAPGKERELVAVITRGASTYYADSVKGRFTISRDNAKNTVYLQMNSLKPEDTAVYYCAAAVYSPDYYRFWYSFDYWGQGTQVTVTS", "polyreactivity (PSR sort gate)": "low polyreactivity"}
{"sequence": "QVQLVESGGGLVQAGGSFRLSCAASGRIFSPNAMGWYRQAPGKEREFVAAINDRGGNTYYADSVKGRFTISRDNAKNTVYLQMNSLKPEDTAVYYCAATVTVFYTRYYYWGQGTQVTVSS", "polyreactivity (PSR sort gate)": "high polyreactivity"}
{"sequence": "QVQLVESGGGLVQAGGSGRLSCAASGSIFFAYGMGWYRQATGTERELVAAIPNSGTSTYYADSVKGRFTISRDNAKNSDYLQMNSLKPEDTAVFYCARDNEPDYYSYPYDYWGEGTQVTVSS", "polyreactivity (PSR sort gate)": "low polyreactivity"}
{"sequence": "QVQLVESGGGLVQAGGSHRISCAASGNTFVINTMGWYRQAPGKERELVAGISRRGTSTYYADSVKGRFTISRDNAKNTVYLQMNSLKPEDTAVYYCAVYAEIVRYEYWGQGTQVTVSS", "polyreactivity (PSR sort gate)": "high polyreactivity"}
{"sequence": "QVQLVESGGGLVQAGGSHRLSCAASGFIFYYYTRGWYRQAPGKERELVAAISRGRGSTYYADSVKGRFTISRDNAKNTVYLQMNSLKPEDTAVYYCARTDRRLGAHQGDYWGQGTQVTVSS", "polyreactivity (PSR sort gate)": "high polyreactivity"}
{"sequence": "QVQLVESGGGLVQAGGSHRLSCAASGFTSAVNTMGWYRQAPGKEREFVASISRNGGSTYYADSVKGRFTITRDNAKNTVYLQINSLKPEDTAVYYCNTRVPNYAFRRSRYDYWGQGTQVTVSS", "polyreactivity (PSR sort gate)": "high polyreactivity"}
{"sequence": "QVQLVESGGGLVQAGGSHRLSCAASGIIFGRYAMGSYIQAPGKERELVAAITSGGSTSYSDSVKGRFTISRDNAKNTVYLQMNSLKPEDTAVYYCAARGWYVRHPQNYGYWGQGTQVTVSS", "polyreactivity (PSR sort gate)": "high polyreactivity"}
{"sequence": "QVQLVESGGGLVQAGGSHRLSCAASGIIFILYTMGWYRQAPGKERELVATISSGGGSTFYADSVKGRFTISRDNAKNTVYLQMNSLKPEDTAVYYCAAYPVFGYSYDYWGQGTQVTVSS", "polyreactivity (PSR sort gate)": "low polyreactivity"}
{"sequence": "QVQLVESGGGLVQAGGSHRLSCAASGLIFYYYAMGWYRQAPGKERELVAAITWTAGSTSYADSVKGRFTISRDNAKNTVYLQMNSLKPEDTAVYYCAADYRHDTFSNEYDYWGQGTQVTVSS", "polyreactivity (PSR sort gate)": "low polyreactivity"}
{"sequence": "QVQLVESGGGLVQAGGSHRLSCAASGRIFGTYAMGWYRQAPGKDRELVAAISFSGGSTYYADSVKGRFTISRDNAKNTVYLQMNSLKPDDTAVYYGAAGYRTYYGYRYGYWGQGTQVTVSS", "polyreactivity (PSR sort gate)": "high polyreactivity"}
{"sequence": "QVQLVESGGGLVQAGGSHRLSCAASGRIFNNNAMGWYRQAPGTEREFVAAISSGGGSTYYADSVKGRFTISRDNAKNTVYLQMNSLKPEDTAVYYCAARRHGRVDYSQGSRESYYWGQGTQVTVSS", "polyreactivity (PSR sort gate)": "high polyreactivity"}
{"sequence": "QVQLVESGGGLVQAGGSHRLSCAASGRIFRGYPMGWYRPAPGKERELGAAITSRGGSTYADSVKGRFTISRDNAKNTVYLQMNSLKPEDSAVYYCNAGYRAYSAKLVFRGYPRYDYWGQGTQVTVSS", "polyreactivity (PSR sort gate)": "low polyreactivity"}
{"sequence": "QVQLVESGGGLVQAGGSHRLSCAASGRIFRPYAMGWYRQAPGKEREFVATITRSVGRTYYADSVKGRFTISRDNAKNTVYLQMNSLKPEDTAVYYCATKYIRGTRADVYRFDYWGQGTQVTVSS", "polyreactivity (PSR sort gate)": "high polyreactivity"}
{"sequence": "QVQLVESGGGLVQAGGSHRLSCAASGRTFAPNAMGWYRQAPGKERELVAAISSVGITYYADSVNGRFTISRDNAKNTVYLQMNSLNPEDTAVYYCAKVRKTRSITDGYGYWGQGTQVTVSS", "polyreactivity (PSR sort gate)": "low polyreactivity"}
{"sequence": "QVQLVESGGGLVQAGGSHRLSCAASGRTFGGNVMGWYRPAHWKERELVAAISSTGDRTYYADSVKGRFTISRDNAKNTVYLQMYSLKPEDTAVYYCAARPAYRSSYYWGQGTQVTVSS", "polyreactivity (PSR sort gate)": "high polyreactivity"}
{"sequence": "QVQLVESGGGLVQAGGSHRLSCAASGRTFKLYAMGWYRQAPGKERELVAAITESGRSTYYADSVKGRFTFSRDNAKNTVYLQMNSLKPEDTAVYYCAALGIGSYRRYSGYDYWGQGTQVTVSS", "polyreactivity (PSR sort gate)": "low polyreactivity"}
{"sequence": "QVQLVESGGGLVQAGGSHRLSCAASGRTFQENGMGWYRQAPGKERELVATISQRGTSTYYADSVKGRFTISRDNAKNTVYLQMNSLKPEDTAVYYCARRRVYRWYTGDYWGQGTQVTVSS", "polyreactivity (PSR sort gate)": "low polyreactivity"}
{"sequence": "QVQLVESGGGLVQAGGSHRLSCAASGRTFRINAMGWYRQAPGKERELVAAISRSGGSTYYADSVKGRFTISRDNAKNTVYLQMTSVKPEDTAVYYCAARPYYTWRYLPTKSGDYWGQGTLVTVSS", "polyreactivity (PSR sort gate)": "low polyreactivity"}
{"sequence": "QVQLVESGGGLVQAGGSHRLSCAASGRTFYQNAMGWYRQAPGKERELVATISQRGGSTYYADSVKGRFTISRDTAKNTVYLQMNSLKPEDTAVYYCAKGRYAYSIWDDYWGQGTQVTVSS", "polyreactivity (PSR sort gate)": "low polyreactivity"}
{"sequence": "QVQLVESGGGLVQAGGSHRLSCAASGRTFYRYVMGWYRQAPGKERELVAAIRSSGTSTYYADSVKGRFTISRDNAKNTVYLQINSLKPEDTAVNYCARDSYRGYVYSLDYWGQGNQVTVSS", "polyreactivity (PSR sort gate)": "high polyreactivity"}
{"sequence": "QVQLVESGGGLVQAGGSHRLSCAASGRTFYTNAMGWYRQEPGKERELVARIRRGGTTNYADSVKGRFTISRDNAKNTVYLQMNILKPEDTAVSYCNARRHGGVQPFYFYRNQYELDYWGLGTQVTVSS", "polyreactivity (PSR sort gate)": "high polyreactivity"}
{"sequence": "QVQLVESGGGLVQAGGSHRLSCAASGSIFGVYVMGWYRQAPGKERELVAAITRGASTNYADSVKGRFTISRDNAKNSVYLQMNSLKPEDTAVYYCAARQVSVSGHQYGYWGQGSQVTVSS", "polyreactivity (PSR sort gate)": "low polyreactivity"}
{"sequence": "QVQLVESGGGLVQAGGSHRLSCAASGSIFYQYAMGSYRQAPGKERELVAAITWIGSTYYADSVKGRFTISRDNAKNTVYLQMNSLKPEDTAVYYCNTDPYVLQKYDYWGQGTQVTVSS", "polyreactivity (PSR sort gate)": "low polyreactivity"}
{"sequence": "QVQLVESGGGLVQAGGSHRLSCAASGSILDTYAMGWYRQAPGKERELVAAISRGGRTYYADSVKGRFTLSRDNAKNTVYLQMNSLKPEDTAVYYCNTLTRLVYDGMGYWGQGTQVTVSS", "polyreactivity (PSR sort gate)": "high polyreactivity"}
{"sequence": "QVQLVESGGGLVQAGGSHRLSCAASGSILWENAMGWYIQAPRKERELVATISVSGGGTYYADSVKGRFTISRDKAKNTDYLQMNSLKPEDTAVYYCNARYGYESQGWEDYWGQGTQVTVSS", "polyreactivity (PSR sort gate)": "low polyreactivity"}
{"sequence": "QVQLVESGGGLVQAGGSHRLSCAASGSISRRYAMGWYRQAPGKERELVAAINQSGGRTYYADSVKGRFTISRDNAKNTVYLQMNSLKPEDTAVYYCAARLSGYDYWGQGTQVTVSS", "polyreactivity (PSR sort gate)": "high polyreactivity"}
{"sequence": "QVQLVESGGGLVQAGGSHRLSCAASGSTFLNNAMGWYRQAPGKERELVATITSGGITNYADSVKGRFTISRDNAKNTVYLQMNSLKPEDTAVYYCNGETWGFTYYYWGQGTQVTVSS", "polyreactivity (PSR sort gate)": "low polyreactivity"}
{"sequence": "QVQLVESGGGLVQAGGSHRLSCAASGSTFNYYAMGWYRQAPGKERELVAAISRGGSTYYADSVKGRFTISRDNAKNTVYLQMNSLKPEDNAVYYCHARPTRIYHGMGFWGQGTQVNVSS", "polyreactivity (PSR sort gate)": "low polyreactivity"}
{"sequence": "QVQLVESGGGLVQAGGSHRLSCAASGSTFTWYPMGWYRQEPGKERELVADISYGGGSTYYADSVKGRFTISRDNAKNTVYLQMNSLKPEDTAVYYCAAESIPYYRYDYWGQGTQVTVSS", "polyreactivity (PSR sort gate)": "low polyreactivity"}
{"sequence": "QVQLVESGGGLVQAGGSHRLSCAASGSTFVLYALGWYRQAPGKERELVAVISWSGGSTYYADSVKGRFTISRDNAKNTVYLQMNSLKPEDTAVYYCAATGWSSFYYRFDYWGQGTQVTVSS", "polyreactivity (PSR sort gate)": "low polyreactivity"}
{"sequence": "QVQLVESGGGLVQAGGSHRLSCAASGSTFVSNAMGGYRQAPGKERELVAGITFSGGSTYYADSVKGRFTISRDNAKNAVYLQMNSVKPEDTAVYYCAKRTYPSFYYWGQGTKVTVSS", "polyreactivity (PSR sort gate)": "low polyreactivity"}
{"sequence": "QVQLVESGGGLVQAGGSHRLSCAASGSTLGDYAMGWYRQAPGKERELVAAISNGVSTNYADSVKGRFTISRDNAKNTVYLQKNSLKPVDTAVYYCNAGSGWGSLLEYDYWGQGTKVTVSS", "polyreactivity (PSR sort gate)": "low polyreactivity"}
{"sequence": "QVQLVESGGGLVQAGGSHRLSCAPSGRTYYMYAMGWYRPAPGKEREFVAAITSGGSRNYADSVKGRFTISRDNAKKTVYLQMNSLKPEDTAVYYWARYRGYWGRYYGVDYGYWGQGTQVTVSS", "polyreactivity (PSR sort gate)": "high polyreactivity"}
{"sequence": "QVQLVESGGGLVQAGGSHRLSCDSSGTFKWYAMGWYRQAPGKERELVAVISTSGGTTNYADSVKGRFTISLDNAKNTVYLQMNSLKPEDTAVYYCNAAKLFRYDYWGQGTQVTVSS", "polyreactivity (PSR sort gate)": "high polyreactivity"}
{"sequence": "QVQLVESGGGLVQAGGSHRLSCSASGSNFRDYAMGWYRQAPGKERELVAAISWSSSRTYYADSVKGRFTISRDNAKNTVYLQMNSLKPEDTAVYYCNKLSIWSYYFGPYGYDYWGQGTQVTVSS", "polyreactivity (PSR sort gate)": "low polyreactivity"}
{"sequence": "QVQLVESGGGLVQAGGSHRLSSAASGSTFAKNAMGWYRQARGKESELVATISRGGSTNYADSVKGRFTISRDNAKNTVYLQMNSLKPEDTAVYYCNADRVRTAVYSYVYAYGIMNYSGQGTQVTVSS", "polyreactivity (PSR sort gate)": "low polyreactivity"}
{"sequence": "QVQLVESGGGLVQAGGSHRLTCAASGRTFIFYAMGWYRPEPGKERELVAAITYSGTSTYYADSVKGRFTISRDNAKNTVYLQMNSLKPEDTAVYYCAKDGQRDANYYWGQGTQVTVSS", "polyreactivity (PSR sort gate)": "low polyreactivity"}
{"sequence": "QVQLVESGGGLVQAGGSIRLSCAASASIFQSYAMGWYRQAAGKERELVATITYSAGSTYYSDSVKGRFTITRDNAKNTVYLQMNSLKPEDTAVYYCDARRRGTIKTRMDYWGQGTQVTVSS", "polyreactivity (PSR sort gate)": "high polyreactivity"}
